Source: patent US9487561B2, “Biologically active complex and its preparation” (HAMLET PHARMA AB, priority 2010, dated 2016)

B1: HAMLET (protein, UniProt P00709 20-142, looked up)
Alpha-lactalbumin: KQFTKCELSQLLKDIDGYGGIALPELICTMFHTSGYDTQAIVENNESTEYGLFQISNKLWCKSSQVPQSRNICDISCDKFLDDDITDDIMCAKKILDIKGIDYWLAHKALCTEKLEQWLCEKL
modifications: oleic acid complex

Columns and labels:
[1] = system: lymphoma cells (Jurkat cells); experiment: cell death assay with inhibitors; type: cell-based; details: HAMLET 21-35 μM, three hours
Protocol: GAPDH was used as a loading control.
(§1) Cells were detached from cell culture flasks with versen (0.2 g EDTA in 200 ml H2O and 800 ml PBS), washed with PBS and resuspended in serum-free RPMI-1640. HAMLET dissolved in PBS was incubated with cells (0.5×10^6/ml for A549, A498 and HeLa cells; 1×10^6/ml for Jurkat) at 37° C. FCS was added after 1 hour. Cell death was quantified by trypan blue exclusion (Chroma Gesellschaft Schmid & Co) or by measuring ATP levels (ATPlite Kit, PerkinElmer, Infinite 200, Tecan). Light images were captured using the HOLOMONITOR™ M2 digital holographic microscope (Phase Holographic Imaging AB, Lund, Sweden).
(§2) For studies with inhibitors, cells were pretreated for 30 minutes. Inhibitors used were Gadolinium chloride (GdCl3, 100 μM), Barium chloride (BaCl2, 1 mM), Ruthenium red (30 μM), tetrandrine (10 μM) and amiloride (1 mM), all from Sigma Aldrich. For p38 inhibition, SB202190 (20 μM, Sigma Aldrich) or BIRB796 (10 μM, Axon Medchem) dissolved in DMSO was used. The wells were washed twice with PBS and new medium with inhibitor was added. For RNA interference, FlexiTube siRNA Premixes against MAPK11 (SI00606053), MAPK14 (SI00300769) and All Star Negative Control siRNA (SI03650318) from Qiagen was used. A549 forward was transfected using 25 nM final siRNA concentration in 24-well plate. After 48 hours, knockdown was examined by Western blot (anti-p38, 1:1000, Cell Signaling) and RT-PCR (MAPK14, QT00079345, QIAGEN).
To examine if functional ion channels are important for the tumoricidal activity of HAMLET, A549 lung carcinoma cells in suspension were pretreated with the channel inhibitors for 30 minutes and exposed to increasing concentrations of HAMLET for three hours.

[2] = system: lung carcinoma, kidney carcinoma and lymphoma cells; experiment: HAMLET-induced change in cell morphology (light microscopy, real-time imaging); type: cell-based; details: light microscopy
Protocol: as §1
(§3) For live cell imaging, cells were pre-treated with SB202190 for 30 minutes, nuclei were stained with Hoechst 33342 (Invitrogen) and Alexa-Fluor 568-labeled HAMLET (10% labeled HAMLET, Molecular Probes) was added in serum-free medium. FCS was added after 1 hour. Fluorescence was detected with pinhole settings corresponding to 1 airy unit. The cells were kept at 37° C., 5% CO2 and examined unfixed by LSM510 DUO confocal microscopy (Carl Zeiss).
To examine if the HAMLET-induced change in carcinoma cell morphology was modified by the channel inhibitors, lung carcinoma, kidney carcinoma and lymphoma cells were exposed to HAMLET in the presence or absence of ion channel inhibitors and examined by light microscopy (FIG. 2C).
To determine if p38 signaling was involved in cell death, we inhibited p38α and p38β in lung and kidney carcinoma and Jurkat lymphoma cells with two small-molecule p38 inhibitors: SB202190, a highly specific pyridinyl-imidazole inhibitor; and BIRB796, a diaryl urea compound, which bears little structural similarity to SB202190 (Fabian et al., 2005, Nature Biotechnology 23: 329-336), ([…] and FIG. 12B). […] The effect of p38 inhibition on cell death was also observed by real-time confocal imaging of lung carcinoma cells exposed to fluorescently labeled HAMLET.

tumor cells = experiment: internalization of Alexa-fluor labeled HAMLET (confocal microscopy); type: cell-based; details: HAMLET 35 μM, 1 hour
Protocol: FIG. 2. Ion channel inhibitors rescue carcinoma cells from death and block HAMLET uptake and morphologic change. (A) Viability of lung carcinoma cells after exposure to HAMLET (21 or 35 μM, 3 h), quantified by trypan blue exclusion. […] (B) BaCl2 and amiloride prevented carcinoma cells from changing their morphology in response to HAMLET (Mean of two images in one experiment+SEMs). (C) Internalization of Alexa-fluor labeled HAMLET by tumor cells (35 μM, 1 hour), visualized by confocal microscopy. […] GAPDH was the loading control. (E) The transcriptomic response to HAMLET requires functional ion channels.
as §3

(HeLa cells) = experiment: cell death assay with ion channel inhibitors; type: cell-based; details: HAMLET 21-35 μM, three hours
Protocol: as §1
as §2, with “After 48 hours, knockdown was examined by Western blot (anti-p38, 1:1000, Cell Signaling) and RT-PCR (MAPK14, QT00079345, QIAGEN).” left out

Jurkat cells = experiment: sodium influx, CoroNa Green Sodium indicator; type: cell-based; details: 10-minute measurement period
Protocol: Sodium influx in Jurkat cells was measured by using CoroNa Green Sodium indicator. The fluorescence was quantified every 20-second interval for a 10-minute total measurement period.

[3] = system: Human renal tubular epithelial cells (HRTEC); experiment: Ca^2+ and K^+ levels in healthy, differentiated cells in primary culture; type: cell-based; details: HAMLET 35 μM
Protocol: Human renal tubular epithelial cells (HRTEC) were preincubated with Fluo-4 as described, exposed to HAMLET (35 μM) and examined by real time confocal microscopy.
To further characterize ion channel activation by HAMLET, carcinoma cells were pretreated with defined channel blockers. Amiloride is a sodium channel inhibitor with effects on mechanosensitive channels, barium chloride (BaCl2) is a general K^+ channel inhibitor, gadolinium chloride (GdCl3) inhibits mechanosensitive channels, Ruthenium red is a general Ca^2+ inhibitor and tetrandrine inhibits large conductance, Ca^2+ activated K^+ channels. The carcinoma cells were preincubated with Fluo-4 as described above, pretreated with each of the channel inhibitors for 30 minutes, exposed to HAMLET (35 μM) and examined by real time confocal imaging. Furthermore, cells treated with EGTA were compared to cells with intact extracellular Ca^2+ levels, to distinguish the early peak from the subsequent influx of Ca^2+ (FIG. 1B, Table in FIG. 8).

skin papillomas = details: topical administration, placebo controlled; cited from earlier work
bladder cancer = details: mouse, in vivo; cited from earlier work
glioblastoma xenograft = details: rat, in vivo; cited from earlier work
[4] = system: human lung carcinoma (A549) cells; experiment: extended microarray analysis (Illumina HumanHT-12); type: cell-based
Protocol: For the extended microarray analysis, gene expression was assessed by whole genome Illumina microarrays (HumanHT-12 Expression BeadChip). Data was normalized using cross-correlation (Chua et al., 2006 Nucleic Acids Research 34: e38). Genes with a log 2 fold change ≧1.2 in tumor cells and ≧2.0 in healthy, differentiated cells at any time point were regarded as differentially expressed (Benjamini-Hochberg adjusted p-value <0.05).
To identify the pathways that execute tumor cell death downstream of the ion channels, we further examined the global transcriptional responses to HAMLET in human lung carcinoma (A549) and kidney carcinoma (A498) cells over an extended period of 15 min to 24 hours. The p38 MAPK signaling pathway was identified as a top-scoring canonical pathway in A549 cells (FIG. 4A).

| Molecule | rescue from HAMLET-induced cell death [1] | effect of ion channel inhibitor on HAMLET-induced change in cell morphology [2] | effect of inhibitor on internalization of HAMLET (tumor cells) | rescue from HAMLET-induced cell death ((HeLa cells)) | sodium influx (fluorescence signal) (Jurkat cells) | also measured |
| --- | --- | --- | --- | --- | --- | --- |
| NC(N)=NC(=O)c1nc(Cl)c(N)nc1N [amiloride, 3,5-diamino-6-chloro-N-(diaminomethylene)pyrazine-2-carboxamide] | rescue effect | maintained their normal morphology | inhibited internalization | rescue effect |  |  |
| [Ba+2].[Cl-].[Cl-] [BaCl2, barium chloride] | rescue effect | maintained their normal morphology | inhibited internalization | rescue effect |  |  |
| CCCCCCCC/C=C\CCCCCCCC(=O)[O-].[Na+] [oleate, sodium oleate] |  |  |  |  | did not trigger a sodium flux |  |
| B1 |  |  |  |  | immediate increase of fluorescence signal | Ca^2+ response in HRTECs [3]: weak and transient Ca^2+ response; duration of Ca^2+ response in HRTECs [3]: about 90 seconds; effect on skin papillomas (skin papillomas): removed or reduced the size of skin papillomas; therapeutic efficacy in bladder cancer (bladder cancer): Therapeutic efficacy; cell death in healthy brain tissue (glioblastoma xenograft): without evidence of cell death in healthy brain tissue; tumor progression and survival (glioblastoma xenograft): delayed tumor progression and led to increased survival; DUSP1 upregulation [4]: 1.34 log 2-fold change; DUSP10 upregulation [4]: 1.98 log 2-fold change; number of genes with minimum log 2-fold change of 1.2 compared to PBS-treated control cells ([4]; adjusted p-value <0.05): Three hundred sixty-seven |
